The record followed here is publication doi:10.1101/2024.08.21.608941.

Data set [1] has as its target M. tuberculosis Eσ^B holoenzyme (M. tuberculosis) (UniProt P9WGZ1). Briefly: cryo-EM particle classification.
The target is the same in data set [2]. Nature of the data set: negative-stain electron microscopy.
Data set [3] addresses RNAP core deltaFT;sigB Cys151/292 (DY547P1/DY647P1 labelled) (Mycobacterium …, UniProt P9WGZ1;P9WGY9;P9WGY7;P9WGY5;P9WGI5 1-347;1-810+826-1178;1-1316;1-110;1-323, internal_change|T151C;G292C). Briefly: smFRET.
The target of data set [4] is RNAP core deltaFT;sigB Cys151/292 (DY547P1/DY647P1 labelled);RbpA (Mycobacterium …, UniProt P9WGZ1;P9WGY9;P9WGY7;P9WGY5;P9WGI5;P9WHJ5 …, internal_change|T151C;G292C|). Nature of the data set: smFRET.

Usually stoichiometry N stands for a count of units in the complex or per binding partner. Consider “M. tuberculosis Eσ^B holoenzyme (from UniProt P9WGZ1;P9WGY9;P9WGY7;P9WGY5;P9WGI5) (complex)”, for which the stoichiometry N worked out at 2 in data set [1] and 8 in data set [2].

B1: -10 ssDNA (unlabelled) (ssDNA)
DNA: TGCGTATAATGTGTGGA
As for B1, the binding result in data set [3] and in data set [4] was “binds” in each case.
